Test results: patent US20190309052A1 (Gilead, published 2019)

Experiments:
HBx69-87 control peptide = biological target: T1, HBx69-87 control peptide (Hepatitis B virus, UniProt P03165 69-87); test: ELISA with varying concentrations of peptide
T1 construct: range 69-87; also called HBx69-87 peptide
T1 peptide: CALRFTSARRMETTVNAHQ

[1] = biological target: T2, HBx AD38 (genotype D) residue 27-50 peptide (Hepatitis B virus genotype D); test: ELISA, 100 ng/mL antibody with varying peptide concentration
T2 construct: also called HBx27-50; HBx27-50 peptide
T2 peptide: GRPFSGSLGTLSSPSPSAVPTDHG

B1: HBx M19 mouse monoclonal anti-HBx antibody (antibody, V domains shown)
VH: EVQLQQSGPELVKPGASVKISCQASGYTFTDYYMNWVKQSHGKRLEWIGDINPNNGGTAYNQKFKGKATLTVDRSSSTAYMEVRSLTSEDSAVYFCALLAYWGQGTLVTVSA
VL: DVVMTQTPLSLPVSLGDQASISCRSSQSLVYSDGNTHLHWYLQKTGQSPKLLIYKASNRFSGVPDRFSGSGSGTDFTLKISRVEAEDLGVYFCSQSTHVPLTFGAGTKLELKR
notes: also called aHBx mAb; αHBx mAb
- binding result (HBx69-87 control peptide): no binding (tested: 100 ng/mL antibody)
- binding result [1]: binds
